Assay results: patent US20210340516A1, “COMPOSITIONS CONTAINING ARGINASE 1 FOR THE TREATMENT OF NEUROVASCULAR AND RETINAL VASCULAR DISORDERS” (Augusta University Research Institute, Inc., priority 2020, published 2021)

How the values were obtained:
[1] = test system: primary rat retinal mixed neurons; test: Primary retinal mixed neurons subjected to OGD/R, LDH release assay; settings: 6 hours OGD and 18 hours reperfusion, ABH 100 μM at reoxygenation
Procedure: Retinas from ten pups were collected and washed twice with ice-cold 1×PBS. They were digested with 0.5% trypsin for 3-4 min at 37° C., followed by trypsin inactivation with the culture medium, DMEM/F12 (Gibco, Grand Island, N.Y.) plus 10% FBS and 1% Penicillin-Streptomycin (P/S) solution (Invitrogen, Grand Island, N.Y.). The retina tissue was mechanically dissociated by pipetting several times until cells were dispersed. Cells were then filtered through a 40 μm nylon-mesh filter, collected by centrifugation at 1000 rpm for 10 min, re-suspended in culture medium, and plated in 6 or 12 well-cell culture plates (Corning, Corning, N.Y.) coated with Poly-D-lysine hydrobromide (PDL, Sigma) at a density of 0.5×10^6 cells/mL. The plates were maintained in a humidified CO2 incubator at 37° C. and 5% CO2. At days 1, 2, and 3 in vitro (DIV), half of the medium was aspirated and replaced with Neurobasal A medium containing 1×B-27 (GIBCO), 1× glutaMAX (GIBCO) and 1% P/S. Experiments were conducted at DIV 6.

[2] = native enzyme, comparison; cited from earlier work
[3] = test system: mouse model of acute retinal ischemia; settings: intravitreal injection (Fouda 2018); cited from earlier work

N[C@@H](CCCCB(O)O)C(=O)O [ABH, 2(S)-amino-6-boronohexanoic acid, reference compound]
cell death (LDH release) [1]: trend towards increased cell death

B1: native enzyme: native, non-PEGylated arginase, compared with PEG-A1 for half-life (protein, UniProt P05089 1-322, looked up)
Arginase-1: MSAKSRTIGIIGAPFSKGQPRGGVEEGPTVLRKAGLLEKLKEQECDVKDYGDLPFADIPNDSPFQIVKNPRSVGKASEQLAGKVAEVKKNGRISLVLGGDHSLAIGSISGHARVHPDLGVIWVDAHTDINTPLTTTSGNLHGQPVSFLLKELKGKIPDVPGFSWVTPCISAKDIVYIGLRDVDPGEHYILKTLGIKYFSMTEVDRLGIGKVMEETLSYLLGRKKRPIHLSFDVDGLDPSFTPATGTPVVGGLTYREGLYITEEIYKTGLLSGLDIMEVNPSLGKTPEEVTRTVNTAVAITLACFGLAREGNHKPIDYLNPPK
half-life in vivo [2]: a few minutes

B2: A1: arginase 1 given by intravitreal injection in an earlier study (Fouda 2018) (protein, UniProt P05089 1-322, looked up)
Arginase-1: B1 Arginase-1
neuroprotection in acute retinal ischemia [3]: showed neuroprotection
